Assay results from the RNAGym collection of RNA variant scans (doi:10.7554/elife.80360).

B1: HDV Ribozyme (parent)
chain: GGCCGGCAUGGUCCCAGCCUCCUCGCUGGCGCCGGCUGGGCAACAUUCCGAGGGGACCGUCCCCUCGGUAAUGGCGAAUGGGACCCA

Variants of: B1
Assay: self-cleavage, relative activity (ratio to wild type); higher = more cleavage; co-transcriptional

| Variant | self-cleavage |
| --- | --- |
| A8G G74A | 0.256 |
| G38A G53U | 0.0567 |
| C30A C63G | 0.251 |
| G67A A83G | 0.39 |
| C32G C48U | 0.0449 |
| G2A G81C | 0.115 |
| U12G G40A | 0.72 |
| G25A G76A | 0.203 |
| A51U G68A | 0.787 |
| C30G A70C | 0.106 |
| G31A G35A | 0.0455 |
| C14A A56G | 0.57 |
| G6A U37G | 0.128 |
| C14A G54C | 0.536 |
| G1A A56U | 0.217 |
| G25U C49A | 0.175 |
| U37C G81U | 0.211 |
| G1U A42G | 0.403 |
| G34U C64A | 0.268 |
| G40U A71G | 0.46 |
| G59A A70G | 1.2 |
| A8C U46C | 0.615 |
| A42C U47A | 0.0594 |
| G54A C85G | 0.892 |

| Variant | self-cleavage |
| --- | --- |
| G82A C85G | 0.339 |
| C18U C36G | 0.142 |
| C62U G76A | 1.12 |
| G40A C85G | 0.807 |
| G25A C64A | 0.115 |
| C33A A45U | 0.232 |
| C3A G10A | 0.335 |
| G2C U72A | 0.106 |
| C18A G73U | 0.0941 |
| C19U G38U | 0 |
| C19A C61U | 0.0671 |
| C85A A87U | 1.06 |
| G1A C36G | 0.119 |
| C18G G38A | 0.0978 |
| A43U A71C | 0.543 |
| C19U U60C | 0.0906 |
| G25U C58A | 0.244 |
| C18G C24A | 0.0755 |
| C4G G76A | 0.343 |
| C21A A45U | 0.0923 |
| C13G A45G | 0.138 |
| G34C G35U | 0.306 |
| C18G C86G | 0.0831 |
| U27C A77C | 0.192 |

| Variant | self-cleavage |
| --- | --- |
| C24G C58U | 0.117 |
| G2U C32U | 0.0437 |
| G25A C30G | 0 |
| U27G U65A | 1.03 |
| C58A G73U | 0.383 |
| C32U C86U | 0.686 |
| G2C C66G | 0.0978 |
| G10U C48U | 0.782 |
| G31U G34U | 0.0791 |
| G67C G81A | 0.369 |
| G1A C14A | 0.0573 |
| G6U U12G | 0 |
| C41G C61U | 0.886 |
| C3G C49U | 0.673 |
| U27G G28A | 0.499 |
| G34U A71G | 0.154 |
| U20G G74A | 0.0923 |
| C30U G38C | 0 |
| C36G U60A | 0.0405 |
| G1C G10U | 0.143 |
| C32U G68U | 0.776 |
| C32U G39A | 0.192 |
| G6C C41A | 0 |
| G10A | 0.779 |

| Variant | self-cleavage |
| --- | --- |
| C75G G76A | 0.196 |
| C15U G73U | 0.269 |
| G5A U27A | 0.504 |
| G1A C85U | 0.0755 |
| G73C G74C | 0.133 |
| C22G C84A | 0.0369 |
| U9G C86A | 0.959 |
| A45C U47A | 0.911 |
| G10U A43G | 0.0604 |
| A70U A77G | 0.665 |
| A42U C75U | 0.0665 |
| G5A C26A | 0.522 |
| G67U C86U | 0.933 |
| U23C A87U | 0.953 |
| G11C C41U | 0.0831 |
| C24A A45U | 0.541 |
| C33G C84U | 0.0386 |
| U37C A51U | 0.923 |
| G25C G67U | 0 |
| G5A A45U | 0 |
| A70U A83U | 0.237 |
| G2U G76U | 0.0762 |
| G76U C86G | 1.09 |
| G6C C64A | 0.594 |

| Variant | self-cleavage |
| --- | --- |
| C14A G68C | 0.388 |
| G80C C86G | 0.192 |
| G2C G50A | 0.138 |
| A16U A45G | 0.982 |
| U9A A42C | 0.252 |
| A43C C62G | 0.322 |
| U27A G68U | 0.875 |
| G39C A43U | 0 |
| U46G C84G | 0.185 |
| U23C G28C | 0.0639 |
| C3U C21U | 0.101 |
| G31A A71C | 0.251 |
| G1C G82U | 0.095 |
| G10A A78C | 0.113 |
| U47C G81U | 0.443 |
| U23C A71C | 0.415 |
| C49U G50A | 1.05 |
| C19A G35C | 0.125 |
| C4A A43C | 0 |
| U27A C58U | 0.937 |
| A42U A83C | 0.119 |
| C13G C44U | 0 |
| G28U U37G | 0.18 |
| G5U A8G | 0.356 |

| Variant | self-cleavage |
| --- | --- |
| U46C G59A | 0.776 |
| G68A A77U | 0.394 |
| C14A G76C | 0.969 |
| G5U C41A | 0.172 |
| G11A G52C | 0.521 |
| G29C A42G | 0 |
| U27G C75U | 0.138 |
| A51C G68U | 0.782 |
| G34A A78C | 0.157 |
| G55C A78G | 0.525 |
| C26U G67U | 0.686 |
| C24G C62U | 0.142 |
| G35C G50U | 0.272 |
| C24A A83G | 0.626 |
| C22A A77U | 0.101 |
| G6U U47C | 0.467 |
| G34A G52C | 0.0545 |
| G55A G59U | 0.973 |
| C30U C32G | 0.0652 |
| C30U C32A | 0.155 |
| U37C U69A | 0.9 |
| U9C G76U | 1.05 |
| C64U A78C | 0.138 |
| G74C C75A | 0.252 |

| Variant | self-cleavage |
| --- | --- |
| C36U G53U | 0.852 |
| C32A G59U | 0.095 |
| C19A U69A | 0.143 |
| C22G A78G | 0.141 |
| G28A C36G | 0.0519 |
| C41G U46C | 0.297 |
| C44U G68C | 0.529 |
| C26A U65A | 0.966 |
| C26A A43U | 0.527 |
| C18U C21G | 0.151 |
| G1A U47C | 0.128 |
| G31A U46C | 0.166 |
| C7U U27C | 0.404 |
| C32U C62A | 0.906 |
| C13U G38A | 0.138 |
| A43U C48U | 0.608 |
| G38C C84A | 0.18 |
| U9C C44U | 0.739 |
| C4G U20A | 0.0536 |
| G35U C36A | 0.0831 |
| U65C A70C | 1.17 |
| U65A A77G | 0.643 |
| G40A G55A | 0.882 |
